± gives the uncertainty stated by the source.
Test: protein stability index of a GFP-peptide fusion (yeast GPS) (PSI 1-4); higher = more stable; sorted into four equal gates, so the index is relative within each strain
Summary of the method: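 Tiled 17-residue peptides from yeast proteins were fused downstream of GFP on a plasmid that also expresses Cherry, and the pooled library was carried in yeast. Mid-log cultures grown in leucine-free medium were sorted into four equal gates by GFP/Cherry fluorescence ratio. Plasmids from each gate were PCR-amplified and Illumina-sequenced, and reads were assigned to strains by barcodes. Each peptide's protein stability index is the sum, over gates, of the gate's read frequency multiplied by its gate number.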

Row | Sequence | protein stability index (doa10∆) | protein stability index (pdr5∆) | protein stability index (san1∆) | protein stability index (ubr1∆)
1 | VILFDSDWNPQADLQAM [ISW2] | 3.12 ± 0.088 | 2.38 ± 0.08 | 2.84 ± 0.11 | 2.15 ± 0.057
2 | LTNEISDLKGKLSSAEN [YIL149C/MLP2] | 3.38 ± 0.22 | 3.29 ± 0.13 | – | 3.32 ± 0.18
3 | HKSPNLSLMLESPNYCN [SRB4] | 2.28 ± 0.078 | 2.65 ± 0.1 | 2.64 ± 0.095 | 2.71 ± 0.06
4 | ETERLISQSQLGKFKNI [SIN4] | 3.09 ± 0.13 | – | – | –
5 | FVIRREVTKGEKTYTKA [RPS6A] | 3.24 ± 0.17 | 3.13 ± 0.14 | – | 3.53 ± 0.13
6 | MTVTFLILAGQVKVKGQ [YCS4] | 2.34 ± 0.083 | 2.27 ± 0.074 | 2.3 ± 0.086 | 1.83 ± 0.057
7 | QTRWGLPSGRQDGVLLV [FAS2] | 1.65 ± 0.12 | – | 1.59 ± 0.24 | 1.32 ± 0.15
8 | TTKILGDKILGNLYSKV [YML103C/NUP188] | 2.69 ± 0.079 | 2.82 ± 0.08 | 3.16 ± 0.058 | 2.75 ± 0.051
9 | SKNSPAEDDVIIPQDIL [YJR042W/NUP85] | 3.19 ± 0.13 | 2.96 ± 0.12 | 3.07 ± 0.12 | 3.36 ± 0.19
10 | KIFIAVVWYQRLTMGNV [RRI2] | 1.3 ± 0.044 | 1.25 ± 0.038 | 1.28 ± 0.082 | 1.27 ± 0.036
11 | SNLTIYPIYELLMSCPR [GRR1] | 1.72 ± 0.083 | 1.75 ± 0.071 | 1.89 ± 0.13 | 1.83 ± 0.056
12 | YQRSKRVNNPNVSLIKI [RPL33A] | 3.1 ± 0.067 | 3.15 ± 0.065 | 2.93 ± 0.059 | 3.21 ± 0.045
13 | ETLGDILKRDFELVSDL [ECM29] | 3.27 ± 0.14 | 3.39 ± 0.17 | 2.95 ± 0.22 | 3.08 ± 0.17
14 | TNQKDTNDHVDKRTKID [ISW2] | 2.77 ± 0.069 | 3.05 ± 0.07 | 2.81 ± 0.059 | 2.72 ± 0.044
15 | FMNDAAADVSAVDAKQL [YML103C/NUP188] | 2.52 ± 0.095 | 2.54 ± 0.099 | 3.06 ± 0.091 | 2.21 ± 0.081
16 | NSKPVELKPVSLDNKTL [YJL041W/NSP1] | 2.8 ± 0.055 | 2.75 ± 0.059 | 2.69 ± 0.076 | 2.58 ± 0.064
17 | VRRLEAQRNALNDKVRF [RPT6] | 2.63 ± 0.1 | 2.96 ± 0.089 | 2.77 ± 0.13 | 2.7 ± 0.045
18 | FTGNNSTPGGGSVFNMN [YOR098C/NUP1] | 2.9 ± 0.097 | 3.58 ± 0.19 | – | 3.03 ± 0.14
19 | TSKPVFSFGAATPSAKE [YLR335W/NUP2] | 2.95 ± 0.046 | 3.08 ± 0.053 | 3.08 ± 0.043 | 3.06 ± 0.041
20 | TPANNGENAAEKPDNSN [SNF2] | 1.89 ± 0.075 | 2.24 ± 0.098 | 1.81 ± 0.1 | 2.71 ± 0.068
21 | PPDSDSSISVMGENEKP [RPT3] | 1.47 ± 0.16 | 1.22 ± 0.12 | 1.21 ± 0.15 | 1.77 ± 0.2
22 | AYILAAQKTSFEYEGVQ [RPN1] | 2.39 ± 0.072 | 2.35 ± 0.079 | 2.2 ± 0.15 | 2.23 ± 0.08
23 | FDKKSFFNGKALNNAIP [PRP8] | 2.06 ± 0.08 | 1.91 ± 0.051 | 1.98 ± 0.15 | 1.92 ± 0.052
24 | FITKHLPLLILENSSRS [NUT1] | 1.36 ± 0.098 | 1.41 ± 0.067 | 1.12 ± 0.2 | 1.14 ± 0.032
25 | VEIAFLFRAIYLYCLDN [YCG1] | 1.54 ± 0.065 | 1.3 ± 0.054 | 1.21 ± 0.11 | 1.2 ± 0.05
26 | KPLGPCDVFWVQKDTAI [POP1] | 2.85 ± 0.07 | 3.03 ± 0.069 | 2.89 ± 0.06 | 2.96 ± 0.054
27 | QQQQMQQQQQQQQQQQN [SSN2] | 2.31 ± 0.11 | 2.63 ± 0.098 | 2.8 ± 0.18 | 2.83 ± 0.1
28 | LYRYRFDPFQAVSRSMT [ECM29] | 2.57 ± 0.067 | 2.65 ± 0.049 | 2.76 ± 0.057 | 2.74 ± 0.043

Row | Sequence | protein stability index (doa10∆) | protein stability index (pdr5∆) | protein stability index (san1∆) | protein stability index (ubr1∆)
29 | AVARLKSMNKSAINQYN [SNF2] | 1.81 ± 0.073 | 2.33 ± 0.076 | 2.34 ± 0.052 | 2.88 ± 0.032
30 | SSLEELLLKDQQTAKKL [ECM29] | 2.82 ± 0.091 | 2.99 ± 0.077 | 2.92 ± 0.1 | 2.95 ± 0.058
31 | ERQQENLLIQRLNFNQN [SWI3] | 3.26 ± 0.071 | 3.38 ± 0.073 | 3.2 ± 0.042 | 3.19 ± 0.055
32 | SQHGQGNNPSWVNNPKK [YDL088C/ASM4] | 3.2 ± 0.14 | 3.52 ± 0.16 | – | –
33 | ALLRSGRLDRKIEFPLP [RPT5] | – | – | – | 3.43 ± 0.18
34 | TKLKNAVQNESVSSPIE [QCR2] | 3.05 ± 0.11 | 3.1 ± 0.084 | 3.25 ± 0.094 | 3.05 ± 0.067
35 | KIFVETKFSKLIGRPPL [FAS1] | 1.97 ± 0.29 | 2.54 ± 0.093 | 2.35 ± 0.11 | 1.79 ± 0.059
36 | QKLHKVKKASGEIVSIN [RPL20A] | 2.98 ± 0.076 | 2.61 ± 0.057 | 3.07 ± 0.042 | 2.8 ± 0.056
37 | RIHRLARYYRTVAVLPP [RPS13] | 1.83 ± 0.088 | 1.8 ± 0.06 | 2.44 ± 0.074 | 2.11 ± 0.046
38 | QNNFHVLIDLLNWFRTT [RGR1] | 1.99 ± 0.064 | 2.17 ± 0.074 | 2.67 ± 0.053 | 2.47 ± 0.09
39 | MLLVDIIPSRMGEAQTG [REC8] | 1.7 ± 0.063 | 1.87 ± 0.073 | 2.02 ± 0.09 | 2.17 ± 0.061
40 | SITTGNDNENIVNNDLP [MED2] | 2.79 ± 0.051 | 2.78 ± 0.052 | 2.57 ± 0.054 | 2.87 ± 0.05
41 | GNIISSDKTIVPTSIQT [SIN4] | 2.42 ± 0.061 | 2.61 ± 0.054 | 2.1 ± 0.076 | 2.77 ± 0.051
42 | AYPAAREQFLNAQDIDH [FAS1] | 3.13 ± 0.082 | 3.15 ± 0.11 | 2.84 ± 0.11 | 3.21 ± 0.054
43 | LVSVTSTLQHFQETLDS [MED8] | 2.4 ± 0.055 | 2.7 ± 0.063 | 2.43 ± 0.054 | 2.39 ± 0.048
44 | PKVPEDIYKSHLDNSKS [RPN1] | 3.1 ± 0.12 | 2.98 ± 0.12 | 2.93 ± 0.1 | 3.24 ± 0.17
45 | GNIKDLPENIILTSLMR [CSN9] | 2.69 ± 0.1 | 2.93 ± 0.075 | 2.43 ± 0.14 | 3.03 ± 0.1
46 | LQVGDVVSTTAVIESVV [FAS1] | 2.33 ± 0.056 | 1.59 ± 0.056 | 2.04 ± 0.091 | 2.01 ± 0.049
47 | EYEEWQKSVSLLSSESN [YDL116W/NUP84] | 2.93 ± 0.055 | 3.02 ± 0.077 | 2.84 ± 0.053 | 2.73 ± 0.054
48 | ETHPDNSNKQAVAILAD [BRR2] | 2.78 ± 0.053 | 2.93 ± 0.049 | 2.81 ± 0.045 | 2.98 ± 0.038
49 | FIEVRNFLGDKKIRNVP [RPL9A] | – | – | – | 3.16 ± 0.12
50 | RFRGKRVVYLKHLEDNT [RPL6A] | 2.21 ± 0.068 | 2.37 ± 0.053 | 2.15 ± 0.1 | 2.31 ± 0.049
51 | EEKVIERAAQKLRLDQL [ISW2] | 2.81 ± 0.15 | 2.89 ± 0.14 | 2.87 ± 0.12 | 2.68 ± 0.11
52 | KYSAITSSIFQESFNSV [NUT1] | 2.22 ± 0.053 | 2.37 ± 0.046 | 2.7 ± 0.047 | 2.48 ± 0.037
53 | NKIMTNQINSFWSLHSS [NUT1] | 1.91 ± 0.2 | 2.23 ± 0.15 | 2.06 ± 0.11 | 3.31 ± 0.1
54 | TVHSKSRTRAHAQSKRE [RPL19A] | 3.19 ± 0.074 | 3.07 ± 0.079 | 2.96 ± 0.068 | 3.19 ± 0.069
55 | RITKSNEKSQAEQEKAK [LRP1] | 1.9 ± 0.075 | 1.33 ± 0.067 | 1.48 ± 0.18 | 1.25 ± 0.14
